Data taken from patent publication US20240166725A1 (BEIJING WISDOMAB BIOTECHNOLOGY, published 2024).
Substitutions are numbered along the chain they refer to. Like-named read-outs stand apart in the source and are kept apart here.

Key:
[1] = biological target: T1, gH/gL protein of varicella-zoster virus, native, on VZV (Oka) virions and VZV-infected MRC5 cells (varicella-zoster virus (Oka), UniProt Q775J3 18-841); test: cell-based or functional assay
[2] = biological target: T1, gH/gL protein of varicella-zoster …; test: cell-based or functional assay; remark: listed apart in the source
[3] = biological target: T2, varicella-zoster virus recombinant protein gH-His/gL (varicella-zoster virus strain Oka, UniProt Q775J3 18-795; Q9J3N1 23-160); test: competition ELISA on coated gH/gL; competitor: phage S7A10 (same clone), bound phage detected with HRP-anti-M13
[4] = biological target: T1, gH/gL protein of varicella-zoster …; test: cell-based or functional assay; remark: listed apart in the source
[5] = biological target: T1, gH/gL protein of varicella-zoster …; test: cell-based or functional assay; remark: listed apart in the source
[6] = biological target: T2, varicella-zoster virus recombinant …; test: competition ELISA on coated gH/gL; competitor: phage H4H8-L1B7 (same clone), bound phage detected with HRP-anti-M13
[7] = biological target: T2, varicella-zoster virus recombinant …; test: competition ELISA on coated gH/gL; competitor: phage S8B8 (same clone), bound phage detected with HRP-anti-M13
[8] = biological target: T2, varicella-zoster virus recombinant …; test: competition ELISA on coated gH/gL; competitor: phage S8E1 (same clone), bound phage detected with HRP-anti-M13
[9] = biological target: T2, varicella-zoster virus recombinant …; test: solid-phase phage display screening on gH-His/gL
[10] = biological target: T2, varicella-zoster virus recombinant …; test: competition ELISA on coated gH/gL, scFv phage at fixed concentration, anti-M13 detection

T1 sequence (Q775J3 18-841): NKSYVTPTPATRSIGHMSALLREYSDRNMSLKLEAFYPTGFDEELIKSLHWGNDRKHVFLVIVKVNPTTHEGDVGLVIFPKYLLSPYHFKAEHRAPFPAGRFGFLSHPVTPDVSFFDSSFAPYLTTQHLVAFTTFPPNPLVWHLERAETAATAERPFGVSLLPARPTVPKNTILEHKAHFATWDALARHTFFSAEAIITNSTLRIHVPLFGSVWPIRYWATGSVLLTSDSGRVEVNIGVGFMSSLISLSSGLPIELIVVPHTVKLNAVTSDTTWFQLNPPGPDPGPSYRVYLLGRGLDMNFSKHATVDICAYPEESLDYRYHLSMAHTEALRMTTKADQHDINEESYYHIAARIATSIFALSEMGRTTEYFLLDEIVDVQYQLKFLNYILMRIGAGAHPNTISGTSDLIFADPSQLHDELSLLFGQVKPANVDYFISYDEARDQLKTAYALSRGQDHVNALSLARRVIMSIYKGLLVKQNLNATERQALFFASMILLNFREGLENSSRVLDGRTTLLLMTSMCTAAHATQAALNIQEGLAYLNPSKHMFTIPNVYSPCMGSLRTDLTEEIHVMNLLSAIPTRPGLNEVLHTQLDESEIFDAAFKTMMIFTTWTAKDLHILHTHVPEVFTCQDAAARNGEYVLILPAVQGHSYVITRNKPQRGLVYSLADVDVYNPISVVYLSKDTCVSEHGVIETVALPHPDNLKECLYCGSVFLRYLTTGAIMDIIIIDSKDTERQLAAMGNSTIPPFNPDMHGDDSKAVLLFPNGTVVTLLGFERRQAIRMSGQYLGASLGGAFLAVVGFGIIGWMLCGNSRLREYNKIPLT
T2 sequence (Q775J3 18-795, tags left off, chain 1 of 2): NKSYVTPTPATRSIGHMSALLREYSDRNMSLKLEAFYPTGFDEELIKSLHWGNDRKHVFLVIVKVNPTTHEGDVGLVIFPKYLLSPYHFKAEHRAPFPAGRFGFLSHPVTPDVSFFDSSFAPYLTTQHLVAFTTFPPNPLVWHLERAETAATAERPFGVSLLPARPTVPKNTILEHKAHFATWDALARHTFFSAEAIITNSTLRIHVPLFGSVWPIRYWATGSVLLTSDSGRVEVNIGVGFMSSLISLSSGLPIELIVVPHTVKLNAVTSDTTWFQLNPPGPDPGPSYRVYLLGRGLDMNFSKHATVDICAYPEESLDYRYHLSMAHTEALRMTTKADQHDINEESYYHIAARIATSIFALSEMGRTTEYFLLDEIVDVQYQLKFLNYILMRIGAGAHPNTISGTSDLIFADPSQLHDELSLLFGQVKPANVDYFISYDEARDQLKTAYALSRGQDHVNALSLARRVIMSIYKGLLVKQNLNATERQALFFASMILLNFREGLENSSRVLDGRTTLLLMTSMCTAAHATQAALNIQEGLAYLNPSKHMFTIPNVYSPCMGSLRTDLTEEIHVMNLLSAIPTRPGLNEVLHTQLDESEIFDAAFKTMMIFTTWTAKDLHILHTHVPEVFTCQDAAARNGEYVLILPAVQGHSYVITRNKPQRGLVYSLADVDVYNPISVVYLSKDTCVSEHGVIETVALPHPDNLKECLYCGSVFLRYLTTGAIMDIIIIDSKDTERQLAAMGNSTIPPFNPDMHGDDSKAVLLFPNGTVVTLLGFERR
T2 sequence (Q9J3N1 23-160 limits assumed, chain 2 of 2): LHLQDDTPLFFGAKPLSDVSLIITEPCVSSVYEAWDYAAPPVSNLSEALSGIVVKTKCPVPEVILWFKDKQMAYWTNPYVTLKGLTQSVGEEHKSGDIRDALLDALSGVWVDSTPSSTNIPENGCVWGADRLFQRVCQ

B1: S7A10-IgG1 (antibody, V domains shown)
VH: QVQLKESGPGPVKPSQSLSLTCSVTGYSITSGNYWNWVRQFPGNKLEWMAYISYDGSTYYNPSLKNRISITRDTSKNQFFLKLNSVTTEDTATYYCAEGYYGYWFAYWGQGTLVTVSA
VL: ENVLTQSPAILSASPGEKVTMTCRASSSVSYMHWYQQKPGSSPKPWIYATSNLASGVPARFSGSGSGTSYSLTISRVEAEDAATYYCQQWSSNPFTFGSGTKLEIKR
notes: also called monoclonal antibody S7A10
B1 was tested, and the “PRNT50 (µg/mL), plaque reduction neutralisation of VZV (Oka) on MRC5 cells” value [1] was 0.34 µg/mL, the “PRNT50(µg/mL), plaque reduction, antibody added 24 h after infection of MRC5 cells (cell-to-cell transmission)” value [2] was 0.93 µg/mL and the “IC50 (read off the curve)” value [3] was about 2 nM.

B2: H4H8-L13C7-IgG1 (antibody, V domains shown)
VH: EVQLVESGGGVVQPGRSLRLSCGASGFTFNTYAMHWVRQAPGKGMEWVAVISYGGGNRYYAASVKGRFTISRDNSKNTLFLQLNTLRPEDTAVYYCARARDNHYFFGMDVWGRGTTVTVSS
VL: DIQMTQSPSSVSASVGDRVTITCRASQGISSWLAWYQQKPGKAPKLLIYAASSLQSGVPSRFSGSGSGTDFTLTISSLQPEDFATYYCQQATYFPINFGGGTKVEIKR
In the case of B2, the “PRNT50(µg/mL), plaque reduction neutralisation of VZV on MRC5 cells” value [4] is reported as over 0.4 µg/mL and the “PRNT50(µg/mL), plaque reduction, antibody added 24 h after infection of MRC5 cells (cell-to-cell transmission)” value [5] is reported as over 2 µg/mL.

B3: H4H8-L1B7-IgG1 (antibody, V domains shown)
VH: B2 VH
VL: B2 VL with T92N, Y93S, I96L, N97T
notes: also called H4H8-LIB7-IgG1; monoclonal antibody H4H8-L1B7
In the case of B3, the “IC50 (read off the curve)” value [6] is reported as about 2 nM.

B4: H4H8-L13C1-IgG1 (antibody, V domains shown)
VH: B2 VH
VL: B2 VL with Q90E, A91G, T92F
B4 was tested, and the “PRNT50(µg/mL), plaque reduction neutralisation of VZV on MRC5 cells” value [4] was 0.016 µg/mL and the “PRNT50(µg/mL), plaque reduction, antibody added 24 h after infection of MRC5 cells (cell-to-cell transmission)” value [5] was 0.28 µg/mL.

B5: H4H8-L14H8-IgG1 (antibody, V domains shown)
VH: B2 VH
VL: B2 VL with A91S, T92S, N97A
For B5, the “PRNT50(µg/mL), plaque reduction neutralisation of VZV on MRC5 cells” value [4] was 0.016 µg/mL and the “PRNT50(µg/mL), plaque reduction, antibody added 24 h after infection of MRC5 cells (cell-to-cell transmission)” value [5] was 0.31 µg/mL.

B6: S8B8-IgG1 (antibody, V domains shown)
VH: EVKLVESGGGLVQPGGSLKLSCAASGFTFSSYTMSWVRQTPEKRLEWVAFISNGGDNNYYADTVKGRFIISRDNAKNTLYLQMSSLKSEDTAMYYCARHNGNWGFAYWGQGTLVTVSA
VL: QNVLTQSPTTMAASPGEKITITCSASSSISSNYLHWYQQKPGFSPKLLIYRTSNLASGVPARFSGSGSGTSYSLTIGTMEAEDVATYYCQQGSSIPLTFGAGTKLEIKR
notes: also called monoclonal antibody S8B8
B6 was tested, and the “PRNT50 (µg/mL), plaque reduction neutralisation of VZV (Oka) on MRC5 cells” value [1] was 0.38 µg/mL, the “PRNT50(µg/mL), plaque reduction, antibody added 24 h after infection of MRC5 cells (cell-to-cell transmission)” value [2] was 3.21 µg/mL and the “IC50 (read off the curve)” value [7] was about 0.3 nM.

B7: S8E1-IgG1 (antibody, V domains shown)
VH: EVKLVESGPGLVKPSQSLSLTCSVTGYSITSGYYWNWIRQFPGNKLEWMGYISYDGSNNYNTSLKNRISITRDTSKNQFFLKLNSVTTEDTATYYCAREDVNYPPYALDYWGQGTSVTVSS
VL: SIVMTQTPLSLPVSLGDQASISCRSSQSLVHSNGNTYLHWYLQKPGQSPKLLIYKVSNRFSGVPDRFSGSGSGTDFTLKISRVEAEDLGVYFCSQSTHVPWTFGGGTKLEMKR
notes: also called monoclonal antibody S8E1
With B7 the “PRNT50 (µg/mL), plaque reduction neutralisation of VZV (Oka) on MRC5 cells” value [1] was 0.38 µg/mL, the “PRNT50(µg/mL), plaque reduction, antibody added 24 h after infection of MRC5 cells (cell-to-cell transmission)” value [2] was 2.82 µg/mL and the “IC50 (read off the curve)” value [8] was about 0.5 nM.

B8: single chain fragment variable S7A10 (phage-displayed) (scFv)
scFv: QVQLKESGPGPVKPSQSLSLTCSVTGYSITSGNYWNWVRQFPGNKLEWMAYISYDGSTYYNPSLKNRISITRDTSKNQFFLKLNSVTTEDTATYYCAEGYYGYWFAYWGQGTLVTVSAGGGGSGGGGSGGGGSENVLTQSPAILSASPGEKVTMTCRASSSVSYMHWYQQKPGSSPKPWIYATSNLASGVPARFSGSGSGTSYSLTISRVEAEDAATYYCQQWSSNPFTFGSGTKLEIK
notes: also called clone S7A10; phage S7A10
B8: binds [9].

B9: single chain fragment variable S8B8 (phage-displayed) (scFv)
scFv: EVKLVESGGGLVQPGGSLKLSCAASGFTFSSYTMSWVRQTPEKRLEWVAFISNGGDNNYYADTVKGRFIISRDNAKNTLYLQMSSLKSEDTAMYYCARHNGNWGFAYWGQGTLVTVSAGGGGSGGGGSGGGGSQNVLTQSPTTMAASPGEKITITCSASSSISSNYLHWYQQKPGFSPKLLIYRTSNLASGVPARFSGSGSGTSYSLTIGTMEAEDVATYYCQQGSSIPLTFGAGTKLEIK
notes: also called clone S8B8; phage S8B8
B9: binds [10].

B10: single chain fragment variable S8E1 (phage-displayed) (scFv)
scFv: EVKLVESGPGLVKPSQSLSLTCSVTGYSITSGYYWNWIRQFPGNKLEWMGYISYDGSNNYNTSLKNRISITRDTSKNQFFLKLNSVTTEDTATYYCAREDVNYPPYALDYWGQGTSVTVSSGGGGSGGGGSGGGGSSIVMTQTPLSLPVSLGDQASISCRSSQSLVHSNGNTYLHWYLQKPGQSPKLLIYKVSNRFSGVPDRFSGSGSGTDFTLKISRVEAEDLGVYFCSQSTHVPWTFGGGTKLEMK
notes: also called clone S8E1; phage S8E1
B10: binds [9].
